Measured values: the RNAGym collection of RNA variant scans (doi:10.1073/pnas.2313332121)

B1: TPR t1 (parent)
chain: GACCAAUCUGCCCUCAGAGCUCGAGAACAUCUUCGGAUGCAGAGGAGGCAGGCUUCGGUGGCGCGAUAGCGCCAACGUCCUCAACCUCCAAUGCAUCCCACCACAUGAUGAUGCCUGAAGAGCCUUGGUUUUUUG

Variants of: B1
Experiment: polymerase ribozyme fitness, log enrichment relative to wild type (log ratio); higher = more active; in vitro selection for triplet polymerase activity
Procedure, shortened: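 Fitness compares each genotype's enrichment to that of the wild type on a logarithmic scale, averaging replicates with inverse-variance weights. The logarithm is base 2. Enrichment came from Illumina sequencing of input and output libraries after one triplicate round of in vitro selection, which included frozen incubation at −7 °C, of PCR-built, transcribed mutant libraries of each subunit of a heterodimeric triplet polymerase ribozyme. Only genotypes with ≥10 input reads and ≥1 read per output were kept.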

| Variant | polymerase ribozyme fitness (log ratio) |
| --- | --- |
| GACCAAUCUGCGCUCAGAGCUCGAGAACAUCUUCGGAUGCAGAGGAGGCAGGCUUCGGUGGCGCGAUAGCGCCAACGUCCUCUACCUCCAAUGCAUCCCACCAAAUGAUGAUGCCUGAAGAGCCGUGGUUUUUUG [C12G A83U C104A U125G] | -2.42 |
| GACCAAUCUGCGCUCAGAGCUUGAGAACAUCGUCGGAUGCAGAGGAGGCAGGCUUCGGUGGCGCGAUAGCGCCAACGUCCUCAACCUCCAAUGCAUCCCACAACAUGAUGUUGCCUGAAGAUCCUUGGUUUUUUG [C12G C22U U32G C102A A111U G122U] | -7.04 |
| GACCAAUCUGCGCUCAGAGGUCGAGAACAUCUUCGGAUGCAGAGGAGGCAGGCUUCGGUGGCGCGAUAGCGCCAACGUUCUUAACCUCCAUUGCAUCCCACCACAUCAUGAUGCCUAAAGAGCCUUGGUUUUUUG [C12G C20G C79U C82U A91U G107C G117A] | -4 |
| GACCAAUCUGCGCUAAGAGCUUGAGGACAUCUUCGGAUGCAGAGGAGGCAGGCUUCGGUGGCGCGAUAGCGCCAACGUCCUCAACCUCCAAUGCAUCCCACCACAUGAUGAUGCCCGUAGAGCGUUGGUUUUUUG [C12G C15A C22U A26G U116C A118U C124G] | -2.97 |
| GACCAAUCUGCGCUCAGAGCUGGAGAACAUCUUCGGAUGCAGAGGAGGCAGGCUUCGGUGGCGCGAUAGCGCCAACGUCCUCAACCUCCAAUGCAUCCCACCACAUGAUGAUGCCUGAAGAGCCUUGGUUUUUUG [C12G C22G] | -3.07 |
| GACCAAUCUGCGCUCAGAGCUCGAGAACAUCUUCGGAUGCAGAGGAGGCAGGCUUCGGUGGUGCGAUAGCGCCACCGUCCUCAACCUCCAAUGCAUCCCACCACAUGGUGAUGCCUGAAGAGCCUUGGUUUUUUG [C12G C62U A75C A108G] | -2.34 |
| GACCAAUCUGCGCUCAGAGCUCGAGAACAUCUUCGGAUGCAGAGGAGGCAGGCUUCGGUGGGGCGAUAGCGCCAACGUCCUCAACCUCCAAUGCAUCCCACCACAUGGUGAUGCCUGAAGAGCCUUGGUUUUUUG [C12G C62G A108G] | -3.58 |
| GACCAAUCUGCGCUCAGAGCUCGAGAACAUCUUCGGAUGCAGAGGAGGAAGGCUUCGGUGGCUCGAUAGCGUCAACGUCCUCAACCUCAAAUGCAUCCCACCACAUGAUGAUGCCUGAAGAGCCUUGGUUUUUUG [C12G C49A G63U C72U C89A] | -3.61 |
| GACCAAUCUGCGUUCAGAGCUCGAGAACAUCUUCGGAUGCAGAGGAGGCAGUCUUCGGUGUCGCGAUAGCGCCAACGUCCUCAACCUCCAAUGCAUCCCACUACAUGAUGAUGCCUGAAGUCCCUUGGUUUUUUG [C12G C13U G52U G61U C102U A121U G122C] | -1.95 |
| GACCAAUCUGCGCUAAGAGCUCGAGAACAUCUUCGGAUGCAGAGGAGGCAGGCUUCGGUGGCGCGAUAGCGCCAACGACCUCAACCUCCAAUGCAUCCCACCACAUGAUGAUGCCUGAAGAGCCUUGGUUUUUUG [C12G C15A U78A] | -2.34 |
| GACCAAUCUGCGCUUAGAGCUCGAGAACAUCUUCGGAUGCAGAGGAGGCAGGCUUUGGUGGCGCGAUAGCGCCAACCUCCUCCACCUACAAUGCAUCCCACCACAAGAUGAUGCCUGAAGAGCCUUGGUUUAUUG [C12G C15U C56U G77C A83C C88A U106A U132A] | -3.55 |
| GACCAAUCUGCGCUCAGAGCUCGAGAACAUCUUCGGAUGCAGAGGAGGCAGGCUUCGGUGGCGCGAUAGCGCGAACGUCCUCAACCUGCAAUGCAUCCCACCACAUGAUGAUGCCUGAAGAGCCUUGGUUUUUUG [C12G C73G C88G] | -1.78 |
| GACCAAUCUGCGCUCAGAGCUCGAGAACAUCUUCGGAUGCAGAGGAGGCAGGCUUAGGUGGCGCGAUAGGGCCAACGUCCUCAACCUCCAAUGCAUCCCACCACAUGAUGAUGCCUGAAGAGCCUUGGUUUUUUG [C12G C56A C70G] | -3.89 |
| GACCAAUCUGCGCUAAGAGCUCGAGAACAUCUUCGGAUGCAGAGGAGGCAGGCUUCGGUGGCGCGAUAGCGCCAACGUCCUCAACCUCCAAUGCAUCCCACCACAUGGUGCUGCCUGAAGAGCCUUGGUUUUUUG [C12G C15A A108G A111C] | -4.53 |
| GACCAAUCUGCGCUCAGAGCUCGAGAACAUCUUCGGAUGCAGAGGCGGCAGGCUUCGGUGGCGCGAUAGCGCCAACGUCCUCAACCUCCAAUGCAUCCCAUCACAUGAUGAUGCCUGAAGAGCCUUGGUUUCUUG [C12G A46C C101U U132C] | -1.45 |
| GACCAAUCUGCGCUCAGAGCUCGAGAACAUCUUCGGAUGCAGAGGAGGCUGGCUUCGGUGGCGCGAUAGCGCCAACGUCCUCAACCUCCAAUGCAUCCCACCACAUGAUGAUGCCUCAAGAGCCCUGGUUUUUUG [C12G A50U G117C U125C] | -6.32 |
| GACCAAUCUGCGCUCAGAGCUCGAGAACAUCUUCGGAUGCAGAGGAGGCAGGCUUCGGUGGCGCGAUAGCGUCAACGUCCUCAACCUCCAAUGCAUCCCACCACAUGAUGAUGCCUGAAGAGCCUUGGUUUUUUG [C12G C72U] | 0.127 |
| GACCAAUCUGCGCUCAGAGCUCGAGAACAUCUUCGGAUGAAGAGGAGGCCGGCUUCGGUGGCGCGAUAGCGCCAACGUCAUCACCCUCCAAUGCAUCCCACCAUAUGAUGAUGCCUGAAGAGCCUUGGUUUUUUG [C12G C40A A50C C80A A84C C104U] | -3.24 |
| GACCAAUCUGCGCUCAGAGCUCGAGAAUAUCUUCGUAUGCAGAGGAGGCAGGCUUCGGUAGCGCGAUAGCGCCAACGUCCUCCACCUCCAAUGCAUUCCACCACAUGAUGAUGCCUGAAGAGCCUUGGUUUUUUG [C12G C28U G36U G60A A83C C97U] | -3.31 |
| GACCAAUCUGCGCUCAGAGCUCGAGAACAUCUUCGGAUGCAGAGGAGGCAGGAUUCGGUGGCGCGAUAGCGCCAACGUCCUCAACCUCCAAUGCAUCCCACCACAUGAUGAUGCCUGAAGAGCCUUGGUUUUUUG [C12G C53A] | 0.285 |
| GACCAAUCUGCGAUCAGAGCUCGAGAACAUCUUCGGAUGCAGAGCAGGCAGGCUUUGGUGGCGCGAUAGCGCCAACGUCCUCAACCUCCAAUGCAUCCCACCACAUGAUGAUGCCUGAAGAGCCUUGGUUUUUUG [C12G C13A G45C C56U] | -1.27 |
